Assay results as given in patent US20220073608A1 (JIANGSU HUAIYU PHARMACEUTICAL, published 2022).

T1: hSEMA4D ECD-His (His-tagged human SEMA4D protein extracellular domain, Met22-Arg734) (human, UniProt Q92854 22-734)
T1 construct: Expressed in CHO-S cells, purified on Ni column; also called protein immunogen; immunogen A; not shown: His tag of the pCP vector
T1 sequence: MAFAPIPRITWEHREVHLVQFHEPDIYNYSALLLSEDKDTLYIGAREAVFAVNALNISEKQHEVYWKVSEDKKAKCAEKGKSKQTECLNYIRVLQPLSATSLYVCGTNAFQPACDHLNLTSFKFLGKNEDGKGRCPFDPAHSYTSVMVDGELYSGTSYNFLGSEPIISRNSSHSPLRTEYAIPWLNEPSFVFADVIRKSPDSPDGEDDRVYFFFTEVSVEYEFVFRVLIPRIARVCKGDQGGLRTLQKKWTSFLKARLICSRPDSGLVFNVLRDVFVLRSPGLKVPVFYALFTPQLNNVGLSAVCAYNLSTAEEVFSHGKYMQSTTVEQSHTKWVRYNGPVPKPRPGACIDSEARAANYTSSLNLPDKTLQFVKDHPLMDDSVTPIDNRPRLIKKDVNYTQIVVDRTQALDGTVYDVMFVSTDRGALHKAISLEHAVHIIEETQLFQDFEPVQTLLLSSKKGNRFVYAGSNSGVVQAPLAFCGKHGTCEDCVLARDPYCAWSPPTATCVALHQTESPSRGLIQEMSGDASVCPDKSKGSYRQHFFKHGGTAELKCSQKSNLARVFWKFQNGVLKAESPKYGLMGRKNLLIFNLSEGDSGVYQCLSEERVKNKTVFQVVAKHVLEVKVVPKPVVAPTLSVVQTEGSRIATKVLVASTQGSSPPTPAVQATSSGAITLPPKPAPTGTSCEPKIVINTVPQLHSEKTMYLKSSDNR


Target: T1, hSEMA4D ECD-His (His-tagged human …)
Experiment: SPR (Biacore), antibody captured on anti-human Fc CM5 chip, hSEMA4D ECD-His 100 nM as analyte, 1:1 fit
Description: The anti-human Fc IgG (purchased from Geneway) was coupled and immobilized on the surface of the CM5 chip (purchased from GE) by the amino coupling method, and FC1 was used as the reference channel. The coupling and immobilization process was as follows: the freshly prepared mixture of 50 mM N-hydroxysuccinimide (NHS) and 200 mM 1-(3-dimethylaminopropyl)-3-ethylcarbodiimide hydrochloride (EDC) with a molar ratio of […] was used to activate the chip. Then 10-50 μg/mL anti-human Fc IgG diluted in 10 mM sodium acetate buffer (pH 5.0) was injected. The remaining activated sites were blocked with 1M ethanolamine. Then, buffer containing HBS-EP was used to dilute the 2D5-b1-3D9 antibody prepared to 5 ug/ml and the antibodies were captured on the chip at a flow rate of 10 ul/min to obtain a response value of about 100-300RU. Then, the purified hSEMA4D ECD-His was diluted to 100 nM and let flow across the chip surface at a flow rate of 30 μL/min. At the end of each cycle, the chip surface was regenerated with 10 mM Glycine at pH 1.5. The kinetic rate constant needed to be subtracted from the blank control, and the data was fitted with the global fit analysis method 1:1 combined with the model (see the Biacore operation manual for operation). The dissociation equilibrium rate constant (KD) was calculated according to the following formula: KD=kd/ka, wherein Kd is the dissociation constant and Ka is the binding constant.

Kd [nM]	koff [s⁻¹]	kon [M⁻¹ s⁻¹]	Binder
2.01	0.00103	511000	2D5-b1 (antibody, V domains shown, Framework back-mutated variant of 2D5; the parent 2D5 was human IgG4 (S228P)/lambda; captured by anti-human Fc in the SPR assay) VH: QVTLRESGPALVKPTQTLTLTCTFSGFSLTTTGVAVTWIRQPPGKALEWLALIDWDDDKYYSTSLKTRLTISKDTSKNQVVLTMTNMDPVDTATYYCARIASGDSGGYFADWGQGTLVTVSS VL: SYELTQPPSVSVSPGQTASITCSGDKLDDKYVYWYQQKPGQSPVLVIYRDNKRPSGIPERFSGSNSGNTATLTISGTQAMDEADYYCQAWESSSDQYVFGTGTKVTVL
0.184	0.000107	583000	2D5-b1-3D9 (antibody, human IgG4, V domains shown, also called 2D5-b1-3D9 antibody) VH: QVTLRESGPALVKPTQTLTLTCTFSGFSLTTTGVAVTWIRQPPGKALEWLALIDWDDDKYYSTSLKTRLTISKDTSKNQVVLTMTNMDPVDTATYYCARIASGDSGGYFADWGQGTLVTVSS VL: SYELTQPPSVSVSPGQTASITCSGDKLDDKYVYWYQQKPGQSPVLVIYMDNKRKSGIPERFSGSNSGNTATLTISGTQAMDEADYYCQAWESSSDQYVFGTGTKVTVL
